Legend:
(AcDEVD)K-pNA = test system: T1, (AcDEVD)K-pNA
T1 sequence: DEVD

(AcDVED)K-pNA = test system: T2, (AcDVED)K-pNA
T2 sequence: DVED

AcDEVD-pNA = test system: T3, AcDEVD-pNA
T3 sequence: DEVD

(AcIEPD)K-pNA = test system: T4, (AcIEPD)K-pNA
T4 sequence: IEPD

AcIEPD-pNA = test system: T5, AcIEPD-pNA
T5 sequence: IEPD

(AcAAF)K-pNA = test system: T6, (AcAAF)K-pNA
T6 sequence: AAFK

(AcFG)K-pNA [1] = test system: T7, (AcFG)K-pNA
T7 sequence: FGK

CAAK(F)-diamino-pNA = test system: T8, CAAK(F)-diamino-pNA
T8 sequence: CAAK

(AcFG)K-pNA [2] = target: T9, (AcFG)K-pNA (not fully specified)
T9 chain: FGK

Molecule: Caspase 3
- absorbance increase at 405 nm (pNA release), 125 uM substrate first with caspase-3 then with trypsin, over 60 minutes ((AcDEVD)K-pNA): 0.1±0.006 AU
- pNA release relative to the commercial substrate AcDEVD-pNA ((AcDEVD)K-pNA): pNA release from our substrate corresponded to 83% of the release from the commercial substrate
- pNA release with trypsin and caspase 3 ((AcDVED)K-pNA): no pNA release occurred when (AcDVED)K-pNA (SEQ ID NO: 2) was incubated with trypsin and caspase 3
- pNA release on caspase 3 digestion (AcDEVD-pNA): both substrates are digested efficiently by caspase 3

Molecule: Caspase 8
- absorbance increase at 405 nm, 500 uM substrate with caspase 8 for 24 hours before adding trypsin ((AcDEVD)K-pNA): did not result in a significant absorbance increase
- absorbance increase at 405 nm (pNA release) with caspase 8 and trypsin ((AcIEPD)K-pNA): little to no absorbance increase in the presence of caspase 8 and trypsin
- caspase 8 activity on single enzyme substrate (absorbance, pNA release) (AcDEVD-pNA): cleaved as expected
- caspase 8 activity on single enzyme substrate (absorbance, pNA release) (AcIEPD-pNA): cleaved as expected

Molecule: Trypsin
- absorbance increase at 405 nm (pNA release), 100 uM peptide with trypsin only ((AcAAF)K-pNA): a minimal absorbance increase (0.016±0.002 AU) was observed when 100 µM peptide was incubated with trypsin only
- absorbance increase at 405 nm (pNA release) with trypsin only ((AcDEVD)K-pNA): In the presence of trypsin or caspase 3 only, no absorbance increase was observed as expected
- pNA release (absorbance at 405 nm) with trypsin only ((AcFG)K-pNA [1]): no absorbance increase was observed when the substrate was incubated with each enzyme separately

Molecule: Chymotrypsin
- absorbance increase at 405 nm (pNA release), 50 uM substrate with chymotrypsin and trypsin, after five hours ((AcAAF)K-pNA): 0.039±0.003 AU
- absorbance increase at 405 nm (pNA release), 100 uM substrate with chymotrypsin and trypsin ((AcAAF)K-pNA): 0.070±0.002 AU
- absorbance increase at 405 nm (pNA release), 200 uM substrate with chymotrypsin and trypsin ((AcAAF)K-pNA): 0.147±0.002 AU
- pNA release (absorbance at 405 nm), 2 mM peptide with trypsin and/or chymotrypsin, 90 minutes at 37 C (CAAK(F)-diamino-pNA): 55% of the theoretical pNA was released after 90 minutes of incubation

B1: Papain (protein)
chain: IPEYVDWRQKGAVTPVKNQGSCGSCWAFSAVVTIEGIIKIRTGNLNEYSEQELLDCDRRSYGCNGGYPWSALQLVAQYGIHYRNTYPYEGVQRYCRSREKGPYAAKTDGVRQVQPYNEGALLYSIANQPVSVVLEAAGKDFQLYRGGIFVGPCGNKVDHAVAAVGYGPNYILIKNSWGTGWGENGYIRIKRGTGNSYGVCGLYTSSFYPVKN
- pNA release (absorbance at 405 nm) with papain and trypsin ((AcFG)K-pNA [2]): In the presence of papain and trypsin, pNA release from the substrate was observed to be substrate dependent

Source: patent US20200199177
